Tested on: T1, MG3-6/3-4 chimera (MG3-6 1-742 + MG3-4 743-1134) (synthetic construct)
T1 sequence: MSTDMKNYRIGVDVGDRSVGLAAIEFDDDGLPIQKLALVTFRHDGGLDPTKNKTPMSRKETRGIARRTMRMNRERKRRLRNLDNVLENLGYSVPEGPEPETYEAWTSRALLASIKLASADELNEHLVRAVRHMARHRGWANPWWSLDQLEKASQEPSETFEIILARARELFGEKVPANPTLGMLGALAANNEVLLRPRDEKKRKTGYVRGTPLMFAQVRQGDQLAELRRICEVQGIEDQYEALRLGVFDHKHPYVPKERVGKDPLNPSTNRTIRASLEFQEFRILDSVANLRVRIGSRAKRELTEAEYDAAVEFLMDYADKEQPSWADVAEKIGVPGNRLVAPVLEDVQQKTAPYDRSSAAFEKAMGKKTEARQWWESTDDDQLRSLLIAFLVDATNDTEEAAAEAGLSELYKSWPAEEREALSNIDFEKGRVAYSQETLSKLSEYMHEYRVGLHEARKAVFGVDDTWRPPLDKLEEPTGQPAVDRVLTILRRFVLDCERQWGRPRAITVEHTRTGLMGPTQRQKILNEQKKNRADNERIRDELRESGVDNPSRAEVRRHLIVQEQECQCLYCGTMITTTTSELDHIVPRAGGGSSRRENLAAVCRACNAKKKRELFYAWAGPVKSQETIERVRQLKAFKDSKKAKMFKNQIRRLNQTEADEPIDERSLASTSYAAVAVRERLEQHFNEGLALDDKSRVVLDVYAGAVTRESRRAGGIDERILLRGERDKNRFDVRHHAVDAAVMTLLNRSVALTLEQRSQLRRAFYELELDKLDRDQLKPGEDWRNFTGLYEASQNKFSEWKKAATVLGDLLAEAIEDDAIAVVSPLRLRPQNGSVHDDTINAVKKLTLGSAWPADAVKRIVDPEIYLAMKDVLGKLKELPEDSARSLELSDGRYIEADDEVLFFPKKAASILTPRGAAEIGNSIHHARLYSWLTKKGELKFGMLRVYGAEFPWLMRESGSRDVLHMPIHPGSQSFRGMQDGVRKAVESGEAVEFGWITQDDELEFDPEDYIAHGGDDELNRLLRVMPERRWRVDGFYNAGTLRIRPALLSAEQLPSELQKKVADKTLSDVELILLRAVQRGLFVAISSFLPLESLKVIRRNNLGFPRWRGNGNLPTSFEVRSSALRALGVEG
Assay: cell_activity
Details: 2'-OMe and PS at termini; Hep3B; 25.0 % in PHH; PAM NNAAA(A/T)N

Work on “CCAUCUAUCAGCUGGGAAGAUAGUUGAGAAUCGAAAGAUUCUUAAUAAGGCAUCCUUCCGAUGCUGACUUCUCACCGUCCGUUUUCCAAUAGGAGCGGGCGGUAUGUUUU / CCATCTATCAGCTGGGAAGATATCAAATG / CATTTGATATCTTCCCAGCTGATAGATGG [hH364-32 sgRNA ; human HAO1 hH364-32 target]” yielded an activity of 60 % indel.

— patent US20250002886
